B1: CocH-LAF6 (Fc fusion)
chain: EDDIIIATKNGKVRGMNLTVFGGTVTAFLGIPYAQPPLGRLRFKKPQSLTKWSDIWNATKYANSCCQNIDQSFPGFHGSEMWNPNTDLSEDCLYLNVWIPAPKPKNATVLIWIYGGGFQTGTSSLHVYDGKFLARVERVIVVSMNYRVGALGFLALPGNPEAPGNMGLFDQQLALQWVQKNIAAFGGNPKSVTLFGESSGAASVSLHLLSPGSHSLFTRAILQSGSANAPWAVTSLYEARNRTLNLAKLTGCSRENETEIIKCLRNKDPQEILLNEAFVVPYGTPLGVNFGPTVDGDFLTDMPDILLELGQFKKTQILVGVNKDEGTWFLVGGAPGFSKDNNSIITRKEFQEGLKIFFPGVSEFGKESILFHYTDWVDDQRPENYREALGDVVGDYNFICPALEFTKKFSEWGNNAFFYYFEHRSSKLPWPEWMGVMHGYEIEFVFGLPLERRDNYTKAEEILSRSIVKRWANFAKYGNPNETQNNSTSWPVFKSTEQKYLTLNTESTRIMTKLRAQQCRFWTSFFPKVVEPKSCDKTHTCPPCPAPELLGGPSVFLFPPKPKDTLYITREPEVTCVVVDVSHEDPEVKFNWYVDGVEVHNAKTKPREEQYNSTYRVVSVLTVLHQDWLNGKEYKCKVSNKALPAPIEKTISKAKGQPREPQVYTLPPSREEMTKNQVSLTCLVKGFYPSDIAVEWESNGQPENNYKTTPPVLDSDGSFFLYSKLTVDKSRWQQGNVFSCSVMHEALHNHYTQKSLSLSPGK
notes: Direct fusion without a linker; also called CocH3-LAF6; CocH3(529)-Fc(M6)
B2: CocH-LAF7 (Fc fusion)
chain: EDDIIIATKNGKVRGMNLTVFGGTVTAFLGIPYAQPPLGRLRFKKPQSLTKWSDIWNATKYANSCCQNIDQSFPGFHGSEMWNPNTDLSEDCLYLNVWIPAPKPKNATVLIWIYGGGFQTGTSSLHVYDGKFLARVERVIVVSMNYRVGALGFLALPGNPEAPGNMGLFDQQLALQWVQKNIAAFGGNPKSVTLFGESSGAASVSLHLLSPGSHSLFTRAILQSGSANAPWAVTSLYEARNRTLNLAKLTGCSRENETEIIKCLRNKDPQEILLNEAFVVPYGTALGVNFGPTVDGDFLTDMPDILLELGQFKKTQILVGVNKDEGTWFLVGGAPGFSKDNNSIITRKEFQEGLKIFFPGVSEFGKESILFHYTDWVDDQRPENYREALGDVVGDYNFICPALEFTKKFSEWGNNAFFYYFEHRSSKLPWPEWMGVMHGYEIEFVFGLPLERRDNYTKAEEILSRSIVKRWANFAKYGNPNETQNNSTSWPVFKSTEQKYLTLNTESTRIMTKLRAQQCRFWTSFFPKVVEPKSCDKTHTCPPCPAPELLGGPSVFLFPPKPKDTLYITREPEVTCVVVDVSHEDPEVKFNWYVDGVEVHNAKTKPREEQYNSTYRVVSVLTVLHQDWLNGKEYKCKVSNKALPAPIEKTISKAKGQPREPQVYTLPPSREEMTKNQVSLTCLVKGFYPSDIAVEWESNGQPENNYKTTPPVLDSDGSFFLYSKLTVDKSRWQQGNVFSCSVMHEALHNHYTQKSLSLSPGK
notes: Direct fusion without a linker; also called CocHl-LAF7; CocH1-LAF7
B3: CocH-LAF8 (Fc fusion)
chain: EDDIIIATKNGKVRGMNLTVFGGTVTAFLGIPYAQPPLGRLRFKKPQSLTKWSDIWNATKYANSCCQNIDQSFPGFHGSEMWNPNTDLSEDCLYLNVWIPAPKPKNATVLIWIYGGGFQTGTSSLHVYDGKFLARVERVIVVSMNYRVGALGFLALPGNPEAPGNMGLFDQQLALQWVQKNIAAFGGNPKSVTLFGESSGAASVSLHLLSPGSHSLFTRAILQSGSANAPWAVTSLYEARNRTLNLAKLTGCSRENETEIIKCLRNKDPQEILLNEAFVVPYGTQLGVNFGPTVDGDFLTDMPDILLELGQFKKTQILVGVNKDEGTWFLVGGAPGFSKDNNSIITRKEFQEGLKIFFPGVSEFGKESILFHYTDWVDDQRPENYREALGDVVGDYNFICPALEFTKKFSEWGNNAFFYYFEHRSSKLPWPEWMGVMHGYEIEFVFGLPLERRDNYTKAEEILSRSIVKRWANFAKYGNPNETQNNSTSWPVFKSTEQKYLTLNTESTRIMTKLRAQQCRFWTSFFPKVVEPKSCDKTHTCPPCPAPELLGGPSVFLFPPKPKDTLYITREPEVTCVVVDVSHEDPEVKFNWYVDGVEVHNAKTKPREEQYNSTYRVVSVLTVLHQDWLNGKEYKCKVSNKALPAPIEKTISKAKGQPREPQVYTLPPSREEMTKNQVSLTCLVKGFYPSDIAVEWESNGQPENNYKTTPPVLDSDGSFFLYSKLTVDKSRWQQGNVFSCSVMHEALHNHYTQKSLSLSPGK
notes: Direct fusion without a linker; also called CocH2-LAF8; A199S/F227A/P285Q/S287G/A328W/Y332G/A530V/M567Y/S569T/T571E/D671E/L673M mutant of BChE(529)-Fc

Target: T1, human FcRn (human, UniProt P55899 24-297; P61769 21-119, limits assumed)
T1 construct: the construct, its source and whether b2m was present are not described; also called neonatal Fc receptor
Experiment: in vitro binding to human FcRn at pH 6; method not described

T1 sequence (P55899 24-297 limits assumed, chain 1 of 2): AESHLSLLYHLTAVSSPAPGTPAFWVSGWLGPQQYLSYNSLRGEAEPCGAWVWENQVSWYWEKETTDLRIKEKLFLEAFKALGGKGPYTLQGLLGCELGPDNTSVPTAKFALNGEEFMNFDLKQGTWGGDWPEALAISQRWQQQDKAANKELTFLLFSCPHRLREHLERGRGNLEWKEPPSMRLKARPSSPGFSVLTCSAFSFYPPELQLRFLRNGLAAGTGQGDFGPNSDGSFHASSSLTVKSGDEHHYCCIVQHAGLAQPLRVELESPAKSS
T1 sequence (P61769 21-119 limits assumed, chain 2 of 2): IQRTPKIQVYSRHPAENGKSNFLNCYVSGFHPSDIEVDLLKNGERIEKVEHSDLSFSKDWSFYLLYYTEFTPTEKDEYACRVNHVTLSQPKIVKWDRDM

Binder	Kd
B1	0.043 µM
B2	0.043 µM
B3	0.043 µM

Source: patent US20210189359A1 (UNIVERSITY OF KENTUCKY RESEARCH FOUNDATION, published 2021)
